Measured values taken from the supplement of paper PMC10567573.

B1: ESRRA (parent)
chain: SLPLQDELAFAEDLVLDEEGARAA
B2: KLHDC10 (parent)
chain: CPIIRIPNRFLRGHRPPPARSGHR

Variants of: B1
Assay: protein stability index of a GFP-peptide fusion (GPS, HEK-293T) (PSI 1-6); higher = more stable
Settings: c terminus: a fixed tail appended
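Further: lentivirally expressed fusions sorted by FACS into six bins by GFP to DsRed ratio, PSI derived from sequencing read proportions per bin multiplied by bin number.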

Row | Variant | protein stability index
1 | G20P | 3.7
2 | L4R | 5.1
3 | E7V | 2.03
4 | V15L | 3.92
5 | R22P | 3.01
6 | D6Q | 2.91
7 | A11I | 4.73
8 | E7R | 4.96
9 | A9D | 5.39
10 | A11F | 4.89
11 | L2W | 2.69
12 | A24C | 2.94
13 | A24T | 3.94
14 | A11L | 4.97
15 | Q5K | 2.79
16 | A24H | 3.66
17 | D13C | 2.31
18 | G20R | 3.38
19 | A11K | 4.98
20 | D17S | 2.69
21 | D17W | 2.62
22 | V15E | 5.82
23 | E7C | 3.5
24 | E18R | 4.03

Row | Variant | protein stability index
25 | V15F | 5.55
26 | L14K | 4.89
27 | L2H | 2.78
28 | A23Y | 2.62
29 | D17I | 2.45
30 | L2D | 5.55
31 | E19V | 2.83
32 | E7N | 4.51
33 | E7I | 2.46
34 | R22K | 3.12
35 | L14F | 5.22
36 | F10Q | 3.98
37 | L16Y | 2.44
38 | D13Y | 2.64
39 | G20T | 4.05
40 | A11M | 5.4
41 | V15M | 4.79
42 | E18A | 2.7
43 | A21H | 3.09
44 | F10W | 2.96
45 | L2I | 2.78
46 | D6R | 2.65
47 | P3N | 4.08
48 | A9M | 3.2

Row | Variant | protein stability index
49 | L8Q | 5.29
50 | S1H | 2.89
51 | P3G | 4.7
52 | A23L | 2.56
53 | L4C | 5.1
54 | Q5I | 3.37
55 | A11N | 5.7
56 | L8W | 5.29
57 | S1A | 3.94
58 | F10E | 4.35
59 | E18L | 3.11
60 | A11H | 5.54
61 | L14S | 4.7
62 | V15A | 4.6
63 | L4H | 5.41
64 | E18S | 2.85
65 | E18T | 2.79
66 | E12R | 4.36
67 | A11V | 5.07
68 | E18H | 2.56
69 | A21F | 3.5
70 | F10S | 3.04
71 | L2R | 2.55
72 | E7Y | 3.88

Row | Variant | protein stability index
73 | L16G | 4.85
74 | L8T | 4.84
75 | E18I | 3.81
76 | D17P | 4.71
77 | A24W | 2.74
78 | E19Y | 2.77
79 | G20A | 4.48
80 | L8A | 5.07
81 | A21E | 3.38
82 | A23R | 2.83
83 | E19D | 2.79
84 | D17A | 2.89
85 | E19R | 2.02
86 | S1P | 3.54
87 | D6I | 2.26
88 | A23Q | 3.19
89 | V15P | 5.37
90 | G20I | 3.08
91 | L4V | 5.02
92 | D13L | 2.68
93 | L8I | 5.34
94 | D13A | 3.48
95 | E7F | 3.92
96 | L8H | 5.5

Row | Variant | protein stability index
97 | F10T | 3.77
98 | A24I | 2.92
99 | A24D | 3.71
100 | S1I | 3.03
101 | V15C | 4.28
102 | L4M | 3.51
103 | E19G | 1.75
104 | L2P | 4.27
105 | E19M | 1.85
106 | D6M | 3.77
107 | D17H | 3.47
108 | L2N | 3.86
109 | E12H | 4.72
110 | P3Q | 4.21
111 | E12Y | 4.2
112 | A11W | 3.02
113 | D17E | 3.7
114 | Q5G | 4.43
115 | L4T | 5.43
116 | A21N | 2.91
117 | S1F | 2.48
118 | A21K | 2.66
119 | E19S | 2.79
120 | D6N | 2.92

Row | Variant | protein stability index
121 | G20H | 2.9
122 | D6K | 2.81
123 | A24N | 2.28
124 | A24R | 2.8
125 | E12Q | 4.71
126 | L8D | 5.43
127 | A21S | 4.05
128 | A9C | 4.11
129 | L14A | 4.45
130 | F10P | 5.69
131 | E7G | 5.2
132 | L8Y | 4.77
133 | E7A | 2.41
134 | S1W | 2.73
135 | L16Q | 3.54
136 | D13H | 2.98
137 | E18D | 4.8
138 | L2A | 4.07
139 | E18Q | 2.8
140 | L4A | 5.45
141 | Q5C | 3.7
142 | L8K | 5.45
143 | A23M | 2.43
144 | R22V | 3.69

Row | Variant | protein stability index
145 | F10D | 4.18
146 | V15S | 5.76
147 | E12V | 4.82
148 | D17R | 3.13
149 | G20W | 2.67
150 | D17N | 2.86
151 | A9R | 3.38
152 | G20S | 4.04
153 | D17C | 2.78
154 | V15Q | 5.49
155 | A23V | 3.21
156 | R22Y | 3.01
157 | L4S | 5.39
158 | A11Y | 4.66
159 | A9E | 4.7
160 | A23S | 3.42
161 | A23F | 2.89
162 | L8C | 5.51
163 | L16M | 3
164 | E18F | 3.24
165 | D13T | 3.71
166 | E7H | 3.94
167 | D13F | 3.31

Variants of: B2
Assay: as above
Settings: c terminus: a fixed tail appended

Row | Variant | protein stability index
168 | C1A | 4.28
169 | C1D | 2.89
170 | C1E | 3.76
171 | C1F | 2.15
172 | C1H | 2.91
173 | C1I | 3.59
174 | C1K | 3.56
175 | C1L | 2.68
176 | C1M | 3.21
177 | C1N | 3.73
178 | C1P | 3.87
179 | C1Q | 4.42
180 | C1R | 3.57
181 | C1S | 3.41
182 | C1T | 3.29
183 | C1W | 1.59
184 | C1Y | 1.97
185 | P2A | 3.75
186 | P2D | 2.32
187 | P2G | 2.41
188 | P2I | 2.6
189 | P2S | 1.31
190 | I3A | 1.56
191 | I3C | 1.78

Row | Variant | protein stability index
192 | I3D | 2.16
193 | I3E | 3.25
194 | I3F | 1.47
195 | I3H | 2.16
196 | I3K | 2.81
197 | I3L | 2.15
198 | I3M | 2.09
199 | I3N | 3.74
200 | I3P | 4.2
201 | I3R | 2.62
202 | I3S | 2.56
203 | I3T | 2.36
204 | I3V | 1.71
205 | I3Y | 1.6
206 | I4A | 2.7
207 | I4C | 2.31
208 | I4D | 4.49
209 | I4E | 4.56
210 | I4F | 2.46
211 | I4G | 3.77
212 | I4K | 3.06
213 | I4L | 2.4
214 | I4M | 1.86
215 | I4N | 4.38

Row | Variant | protein stability index
216 | I4P | 4.21
217 | I4Q | 3.94
218 | I4R | 4.37
219 | I4S | 3.22
220 | I4T | 3.23
221 | I4V | 2.42
222 | I4W | 3.12
223 | I4Y | 3.02
224 | R5A | 3.57
225 | R5D | 4.21
226 | R5E | 5.03
227 | R5F | 2.62
228 | R5G | 3.42
229 | R5H | 3.85
230 | R5I | 2.81
231 | R5K | 3.59
232 | R5L | 1.55
233 | R5M | 1.6
234 | R5N | 4.4
235 | R5P | 3.89
236 | R5Q | 3.54
237 | R5T | 3.81
238 | R5V | 2.6
239 | R5W | 2.73

Row | Variant | protein stability index
240 | R5Y | 2.51
241 | I6A | 3.29
242 | I6C | 2.4
243 | I6D | 4.25
244 | I6E | 3.98
245 | I6F | 4.26
246 | I6G | 3.96
247 | I6H | 4.75
248 | I6K | 3.37
249 | I6L | 4.07
250 | I6M | 2.64
251 | I6N | 4.01
252 | I6P | 4.35
253 | I6Q | 2.77
254 | I6R | 3.69
255 | I6S | 2.04
256 | I6V | 2.77
257 | I6W | 4.13
258 | I6Y | 4.09
259 | P7A | 2.38
260 | P7C | 1.89
261 | P7D | 2.91
262 | P7E | 1.57
263 | P7F | 2.28

Row | Variant | protein stability index
264 | P7G | 3.71
265 | P7H | 3.62
266 | P7I | 2.39
267 | P7K | 2.7
268 | P7L | 2.25
269 | P7M | 3.29
270 | P7N | 2.6
271 | P7Q | 3.04
272 | P7R | 3.66
273 | P7S | 3.13
274 | P7T | 2.23
275 | P7V | 1.86
276 | P7W | 3.51
277 | P7Y | 2.11
278 | N8A | 1.46
279 | N8C | 1.94
280 | N8D | 2.15
281 | N8E | 2.15
282 | N8F | 1.81
283 | N8G | 1.38
284 | N8H | 2.69
285 | N8I | 2.36
286 | N8K | 2.42
287 | N8L | 2.21

Row | Variant | protein stability index
288 | N8M | 1.97
289 | N8Q | 1.3
290 | N8R | 2.54
291 | N8S | 2.44
292 | N8T | 2.52
293 | N8V | 2.79
294 | N8W | 2.59
295 | N8Y | 2.07
296 | R9A | 1.61
297 | R9C | 2.48
298 | R9D | 2.1
299 | R9F | 2.94
300 | R9G | 1.53
301 | R9H | 2.32
302 | R9K | 1.37
303 | R9L | 2.36
304 | R9M | 1.42
305 | R9N | 2.01
306 | R9P | 3.47
307 | R9Q | 2.47
308 | R9S | 2.12
309 | R9T | 1.46
310 | R9V | 2.43
311 | R9Y | 1.71

Row | Variant | protein stability index
312 | F10A | 2.85
313 | F10C | 2.48
314 | F10E | 1.71
315 | F10G | 1.81
316 | F10H | 2.25
317 | F10I | 2.46
318 | F10K | 1.71
319 | F10L | 2.48
320 | F10M | 1.82
321 | F10P | 1.45
322 | F10Q | 2.63
323 | F10R | 2.65
324 | F10S | 2.12
325 | F10T | 2.11
326 | F10V | 1.4
327 | F10W | 2.38
328 | F10Y | 1.8
329 | L11C | 1.4
330 | L11D | 1.42
331 | L11E | 1.31
332 | L11F | 1.84
333 | L11G | 2.3
334 | L11H | 1.69
